Experimental data: paper PMC10372695 (Proceedings of the National Academy of Sciences of the …, 2023)
“And” between values parts separate entries of the source, which are not always exact repeats. Identical values can stand only once. Like-named read-outs stand apart in the source and are kept apart here.

How the values were obtained:
[1] = molecular target: the molecule itself; assay: single-molecule fluorescence microscopy with optical tweezers
[2] = molecular target: the molecule itself; assay: as above; remark: listed apart in the source

B1: C-terminal GFP-tagged SV40 LT (natural protein)
chain: MDKVLNREESLQLMDLLGLERSAWGNIPLMRKAYLKKCKEFHPDKGGDEEKMKKMNTLYKKMEDGVKYAHQPDFGGFWDATEIPTYGTDEWEQWWNAFNEENLFCSEEMPSSDDEATADSQHSTPPKKKRKVEDPKDFPSELLSFLSHAVFSNRTLACFAIYTTKEKAALLYKKIMEKYSVTFISRHNSYNHNILFFLTPHRHRVSAINNYAQKLCTFSFLICKGVNKEYLMYSALTRDPFSVIEESLPGGLKEHDFNPEEAEETKQVSWKLVTEYAMETKCDDVLLLLGMYLEFQYSFEMCLKCIKKEQPSHYKYHEKHYANAAIFADSKNQKTICQQAVDTVLAKKRVDSLQLTREQMLTNRFNDLLDRMDIMFGSTGSADIEEWMAGVAWLHCLLPKMDSVVYDFLKCMVYNIPKKRYWLFKGPIDSGKTTLAAALLELCGGKALNVNLPLDRLNFELGVAIDQFLVVFEDVKGTGGESRDLPSGQGINNLDNLRDYLDGSVKVNLEKKHLNKRTQIFPPGIVTMNEYSVPKTLQARFVKQIDFRPKDYLKHCLERSEFLLEKRIIQSGIALLLMLIWYRPVAEFAQSIQSRIVEWKERLDKEFSLSVYQKMKFNVAMGIGVLDWLRNSDDDDEDSQENADKNEDGGEKNMEDSGHETGIDSQSQGSFQAPQSSQSVHDHNQPYHICRGFTCFKKPPTPPPEPET
Question: How did the “stoichiometry N” value [1] turn out when B1 was run?
Answer: 3 and 4 and 5

Question: And the “stoichiometry N” value [2]?
Answer: 6 and 12
